Measurements: IntAct's records for PubMed 29039417

B1: BBSome complex member BBS2 (Homo sapiens), Q9BXC9 (parent)
chain: MLLPVFTLKLRHKISPRMVAIGRYDGTHPCLAAATQTGKVFIHNPHTRNQHVSASRVFQSPLESDVSLLSINQAVSCLTAGVLNPELGYDALLVGTQTNLLAYDVYNNSDLFYREVADGANAIVLGTLGDISSPLAIIGGNCALQGFNHEGSDLFWTVTGDNVNSLALCDFDGDGKKELLVGSEDFDIRVFKEDEIVAEMTETEIVTSLCPMYGSRFGYALSNGTVGVYDKTSRYWRIKSKNHAMSIHAFDLNSDGVNELITGWSNGKVDARSDRTGEVIFKDNFSSAIAGVVEGDYRMDGHIQLICCSVDGEIRGYLPGTAEMRGNLMDTSAEQDLIRELSQKKQNLLLELRNYEENAKAELASPLNEADGHRGIIPANTRLHTTLSVSLGNETQTAHTELRISTSNDTIIRAVLIFAEGIFTGESHVVHPSIHNLSSSICIPIVPPKDVPVDLHLKAFVGYRSSTQFHVFESTRQLPRFSMYALTSLDPASEPISYVNFTIAERAQRVVVWLGQNFLLPEDTHIQNAPFQVCFTSLRNGGHLHIKIKLSGEITINTDDIDLAGDIIQSMASFFAIEDLQVEADFPVYFEELRKVLVKVDEYHSVHQKLSADMADHSNLIRSLLVGAEDARLMRDMKTMKSRYMELYDLNRDLLNGYKIRCNNHTELLGNLKAVNQAIQRAGRLRVGKPKNQVITACRDAIRSNNINTLFKIMRVGTASS
partner: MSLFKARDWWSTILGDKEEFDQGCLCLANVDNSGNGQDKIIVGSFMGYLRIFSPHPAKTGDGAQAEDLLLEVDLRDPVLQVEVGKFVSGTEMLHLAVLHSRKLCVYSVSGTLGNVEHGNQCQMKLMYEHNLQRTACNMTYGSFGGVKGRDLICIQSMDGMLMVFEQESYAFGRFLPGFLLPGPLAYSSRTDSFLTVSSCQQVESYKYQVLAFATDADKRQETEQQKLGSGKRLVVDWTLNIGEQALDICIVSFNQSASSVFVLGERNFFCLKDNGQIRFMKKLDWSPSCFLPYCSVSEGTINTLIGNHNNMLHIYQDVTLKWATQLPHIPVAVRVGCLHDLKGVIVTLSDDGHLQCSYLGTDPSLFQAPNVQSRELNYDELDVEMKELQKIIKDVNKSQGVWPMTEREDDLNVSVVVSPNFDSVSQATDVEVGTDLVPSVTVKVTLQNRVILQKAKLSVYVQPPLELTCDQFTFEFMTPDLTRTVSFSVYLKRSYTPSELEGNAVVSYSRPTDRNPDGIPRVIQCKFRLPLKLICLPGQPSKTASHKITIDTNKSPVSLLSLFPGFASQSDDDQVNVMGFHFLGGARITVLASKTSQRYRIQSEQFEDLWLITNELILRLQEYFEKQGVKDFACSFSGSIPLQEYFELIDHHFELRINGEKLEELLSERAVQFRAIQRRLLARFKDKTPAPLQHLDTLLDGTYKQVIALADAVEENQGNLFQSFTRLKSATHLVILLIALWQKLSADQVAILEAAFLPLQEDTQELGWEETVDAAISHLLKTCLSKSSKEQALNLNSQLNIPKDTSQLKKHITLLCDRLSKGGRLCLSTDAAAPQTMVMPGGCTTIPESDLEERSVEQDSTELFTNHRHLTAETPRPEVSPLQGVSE

Variants of: B1
Conditions: with pthb1_human BBS9, Q3SYG4

Row | Variant | effect of a mutation on the interaction
1 | P690K | with no effect
2 | L669K | with no effect
3 | L669E | with no effect
4 | L669A | with no effect
5 | G670K | with no effect
6 | G670E | with no effect
7 | G670A | with no effect
8 | R681K | with no effect
9 | I695E | with no effect
10 | I695A | with no effect
11 | A682E | with no effect
12 | K659E | with no effect
13 | D700A | with no effect
14 | A701E | with no effect
15 | L654E | with no effect
16 | L654K | with no effect
17 | L655K | with no effect
18 | V694K | with no effect
19 | V694A | with no effect
20 | V687E | with no effect
21 | V687K | with no effect
22 | V687A | with no effect
23 | G688E | with no effect

Row | Variant | effect of a mutation on the interaction
24 | K673E | with no effect
25 | K673A | with no effect
26 | V675A | with no effect
27 | V675E | with no effect
28 | V675K | with no effect
29 | I679E | with no effect
30 | C698E | with no effect
31 | Q680A | with no effect
32 | Q680K | with no effect
33 | H665A | with no effect
34 | I707E | with no effect
35 | I707K | with no effect
36 | I707A | with no effect
37 | N708E | with no effect
38 | N708K | with no effect
39 | R699A | with no effect
40 | R699E | with no effect
41 | R699K | with no effect
42 | N651K | with no effect
43 | N651E | with no effect
44 | L685K | with no effect
45 | N706E | with no effect
46 | N671A | with no effect

Row | Variant | effect of a mutation on the interaction
47 | A697E | with no effect
48 | A697K | with no effect
49 | T666A | with no effect
50 | T666K | with no effect
51 | R715K | with no effect
52 | R715E | with no effect
53 | L650A | with no effect
54 | L650E | with no effect
55 | F711A | with no effect
56 | F711K | with no effect
57 | F711E | with no effect
58 | A674K | with no effect
59 | I702A | with no effect
60 | I702K | with no effect
61 | I702E | with no effect
62 | R652K | with no effect
63 | R652E | with no effect
64 | Q677A | with no effect
65 | Q677E | with no effect
66 | Q677L | disrupting interaction strength
67 | D653E | with no effect
68 | S704K | with no effect
69 | S704E | with no effect

Row | Variant | effect of a mutation on the interaction
70 | S704A | with no effect
71 | G657E | with no effect
72 | G657A | with no effect
73 | G657K | with no effect
74 | L672K | with no effect
75 | L672E | with no effect
76 | I713A | with no effect
77 | I713E | with no effect
78 | N705E | with no effect
79 | K712E | with no effect
80 | E667K | with no effect
81 | Y658K | with no effect
82 | Y658E | with no effect
83 | N656K | with no effect
84 | N656A | with no effect
85 | R703K | with no effect
86 | R703A | with no effect
87 | N663E | with no effect
88 | N663K | with no effect
89 | L668A | with no effect
90 | G683E | with no effect
91 | G683K | with no effect
92 | I660K | with no effect

Row | Variant | effect of a mutation on the interaction
93 | I660E | with no effect
94 | M714K | with no effect
95 | M714A | with no effect
96 | R684A | with no effect
97 | L710E | with no effect
98 | N692A | with no effect
99 | Q693E | with no effect
100 | Q693K | with no effect
101 | Q693A | with no effect
102 | N676E | with no effect
103 | N676K | with no effect
104 | N676A | with no effect
105 | T709K | with no effect
106 | T709E | with no effect
107 | T709A | with no effect
108 | K691E | with no effect
109 | C662A | with no effect
110 | K689E | with no effect
111 | K689A | with no effect
112 | N664E | with no effect

The next lines start with the values.

Row | effect of a mutation on the interaction | Variant
113 | with no effect | P690E
114 | with no effect | P690A
115 | with no effect | R681E
116 | with no effect | R681A
117 | with no effect | I695K
118 | with no effect | A682K
119 | with no effect | K659A
120 | with no effect | D700E
121 | with no effect | D700K
122 | with no effect | A701K
123 | with no effect | L654A
124 | with no effect | L655A
125 | with no effect | L655E
126 | with no effect | V694E
127 | with no effect | G688A
128 | with no effect | I679K
129 | with no effect | I679A
130 | with no effect | C698A
131 | with no effect | C698K
132 | with no effect | Q680E
133 | with no effect | H665E
134 | with no effect | H665K
135 | with no effect | N708A
136 | with no effect | R661A
137 | with no effect | R661K

Row | effect of a mutation on the interaction | Variant
138 | with no effect | R661E
139 | with no effect | N651A
140 | with no effect | L685A
141 | with no effect | L685E
142 | with no effect | N706A
143 | with no effect | N706K
144 | with no effect | N671E
145 | with no effect | N671K
146 | with no effect | R686K
147 | with no effect | R686E
148 | with no effect | R686A
149 | with no effect | T666E
150 | with no effect | R715A
151 | with no effect | L650K
152 | with no effect | A674E
153 | with no effect | R652A
154 | with no effect | Q677K
155 | with no effect | D653A
156 | with no effect | D653K
157 | with no effect | L672A
158 | with no effect | T696A
159 | with no effect | T696E
160 | with no effect | T696K
161 | with no effect | I713K
162 | with no effect | N705K

Row | effect of a mutation on the interaction | Variant
163 | with no effect | N705A
164 | with no effect | K712A
165 | with no effect | E667A
166 | with no effect | Y658A
167 | with no effect | N656E
168 | with no effect | R703E
169 | with no effect | N663A
170 | with no effect | L668E
171 | with no effect | L668K
172 | with no effect | G683A
173 | with no effect | I660A
174 | with no effect | M714E
175 | with no effect | R684K
176 | with no effect | R684E
177 | with no effect | L710A
178 | with no effect | L710K
179 | with no effect | N692K
180 | with no effect | N692E
181 | with no effect | K691A
182 | with no effect | A678K
183 | with no effect | A678E
184 | with no effect | C662E
185 | with no effect | C662K
186 | with no effect | N664A
187 | with no effect | N664K
